The target in assay [1] is photosystem I complex of Prochlorococcus marinus ecotype MED4 (Prochlorococcus marinus MED4 (endogenous in thylakoid membranes)). Briefly: atomic force microscopy.
Assay [2] shares this target. Briefly: atomic force microscopy. This is another data set of the same source.
The target in assay [3] is photosystem I complex of Synechocystis sp. PCC 6803. Put plainly: negative stain TEM.
The target in assay [4] is photosystem I complex of Prochlorococcus marinus ecotype SS120 (Prochlorococcus marinus SS120 (endogenous in thylakoid membranes)). Briefly: atomic force microscopy.
Assay [5] has as its target photosystem I complex of Prochlorococcus marinus ecotype MIT9313 (Prochlorococcus marinus MIT9313 (endogenous in thylakoid membranes)). Briefly: atomic force microscopy.

Read-outs that look alike come from different tables or passages of the source.

What is called stoichiometry N is a count of units in the complex or per binding partner.

In assay [1], “photosystem I complex of Prochlorococcus marinus ecotype MED4” gave a stoichiometry N of 3. For the same substance, in assay [2], the ratio of PSI monomer equivalents in trimeric vs monomeric or dimeric PSI amounted to 5.3 and the stoichiometry N worked out at 2.

The substance “photosystem I complex of Synechocystis sp. PCC 6803” came in with a stoichiometry N in assay [3] of 3. “photosystem I complex of Prochlorococcus marinus ecotype SS120” showed a stoichiometry N in assay [4] of 3. Consider “photosystem I complex of Prochlorococcus marinus ecotype MIT9313”, for which, in assay [5], the ratio of trimeric to non-trimeric PSI amounted to 44.5 and the stoichiometry N is 3.
